{
  "source": "paper PMC8801479",
  "about": "(2021)",
  "test_in_all_cases": "ELISA; receptor in solution, complex captured on BMP-7 GF mAb",
  "key": {"[1]": {"biological_target": "BMP-7 complex containing biotinylated prodomain (prodomain biotinylated through amines, reconstituted with … (human, UniProt P18075 293-431, biotin through amines (EZ-Link NHS-PEG4-Biotin)))", "sequence (P18075 30-292, chain 1 of 2)": "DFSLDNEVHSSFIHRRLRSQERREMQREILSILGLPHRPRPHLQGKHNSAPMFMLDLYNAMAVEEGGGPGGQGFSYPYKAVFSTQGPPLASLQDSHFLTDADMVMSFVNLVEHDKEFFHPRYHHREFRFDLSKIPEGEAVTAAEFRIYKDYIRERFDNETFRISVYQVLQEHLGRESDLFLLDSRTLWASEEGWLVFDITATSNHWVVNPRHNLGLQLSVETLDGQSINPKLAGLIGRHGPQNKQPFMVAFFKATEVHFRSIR", "sequence (P18075 293-431, chain 2 of 2)": "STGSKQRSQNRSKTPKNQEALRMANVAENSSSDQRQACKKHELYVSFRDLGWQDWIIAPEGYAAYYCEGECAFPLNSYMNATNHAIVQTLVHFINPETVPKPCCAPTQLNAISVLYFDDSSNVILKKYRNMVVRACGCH"}, "[2]": {"biological_target": "BMP-7 complex containing biotinylated GF (mature BMP-7 biotinylated through the glycan, reconstituted with … (human, UniProt P18075 293-431, biotin through the sugars (sodium metaperiodate, hydrazide PEG4 Biotin)))", "sequence (P18075 30-292, chain 1 of 2)": "as the sequence (P18075 30-292, chain 1 of 2) above", "sequence (P18075 293-431, chain 2 of 2)": "as the sequence (P18075 293-431, chain 2 of 2) above"}, "[3]": {"biological_target": "unbiotinylated BMP-7 complex (bone morphogenetic protein 7 mature domain/prodomain soluble complex) (human, UniProt P18075 293-431)", "sequence (P18075 30-292, chain 1 of 2)": "as the sequence (P18075 30-292, chain 1 of 2) above", "sequence (P18075 293-431, chain 2 of 2)": "as the sequence (P18075 293-431, chain 2 of 2) above"}},
  "data": [
    {"binder": "BMPR2-Fc (bone morphogenetic protein receptor type-2 fused to Fc) (Fc fusion) SQNQERLCAFKDPYQQDLGIGESRISHENGTILCSKGSTCYGLWEKSKGDINLVKQGCWSHIGDPQECHYEECVVTTTPPSIQNGTYRFCCCSTDLCNVNFTENFPPPDTTPLSPPHSFNRDET", "values": [
      {"measurement": "Kd", "setting": "[1]", "value": 19, "unit": "nM"},
      {"measurement": "Kd", "setting": "[2]", "value": 8.7, "unit": "nM"},
      {"measurement": "Kd", "setting": "[3]", "value": 11.9, "unit": "nM"}
    ]}
  ]
}
